Data published in PMC5916273, “Structure of a VirD4 coupling protein bound to a VirB type IV secretion machinery” (The EMBO Journal, 2017).

Experiments:
[1] = biological target: T4SS_(3-10) complex of plasmid R388 (TrwM/VirB3 to TrwE/VirB10) (conjugative plasmid R388); test: cysteine labelling with Alexa Fluor 633 C5 maleimide and fluorescence of SDS-PAGE bands; co-purified T4SS3-10+D4 complex denatured in 1% SDS, reduced with TCEP, labelled; band of TrwE (14 copies) as reference; three independent preparations
[2] = biological target: the molecule itself; test: negative stain electron microscopy structure; co-purified T4SS3-10+D4 complex from the ΔtrwD/virB11 construct, cross-linked with 0.1% glutaraldehyde on a 10-30% sucrose gradient (GraFix); 2% uranyl acetate; reconstruction of the inner membrane complex, C2 symmetry, 28 Å

Molecule: TrwB/VirD4 coupling protein of plasmid R388, N-terminally His-tagged (from UniProt Q04230 1-507) (natural protein)
- stoichiometry N (TrwB subunits per complex) [1]: 4.5

B1: TrwB/VirD4 coupling protein of plasmid R388, N-terminally His-tagged (natural protein, conjugative plasmid R388, UniProt Q04230 1-507, looked up)
chain: MHPDDQRKVSAGIVIVLPLIFWITAVQKTEVLGSPKLLALWELMKLTPQKPILLLSALGGLAVGVLFVWLLNSVGQGEFGGAPFKRFLRGTRIVSGGKLKRMTREKAKQVTVAGVPMPRDAEPRHLLVNGATGTGKSVLLRELAYTGLLRGDRMVIVDPNGDMLSKFGRDKDIILNPYDQRTKGWSFFNEIRNDYDWQRYALSVVPRGKTDEAEEWASYGRLLLRETAKKLALIGTPSMRELFHWTTIATFDDLRGFLEGTLAESLFAGSNEASKALTSARFVLSDKLPEHVTMPDGDFSIRSWLEDPNGGNLFITWREDMGPALRPLISAWVDVVCTSILSLPEEPKRRLWLFIDELASLEKLASLADALTKGRKAGLRVVAGLQSTSQLDDVYGVKEAQTLRASFRSLVVLGGSRTDPKTNEDMSLSLGEHEVERDRYSKNTGKHHSTGRALERVRERVVMPAEIANLPDLTAYVGFAGNRPIAKVPLEIKQFANRQPAFVEGTI
notes: TrwB (VirD4 homologue), coupling protein encoded by the conjugative plasmid R388; whole gene cloned after trwD/virB11; theoretical molecular weight with 10 additional histidines 57 kDa; Inner membrane protein; also called His trwB_(/virD4); source: detergent-solubilised membranes; co-purified (Strep column, HisTrap); not shown: His10, N-terminal, kept
- stoichiometry N [2]: 2 TrwB molecules in each region of density
